Experimental findings from patent US20210137977A1 (UNIVERSITY OF SOUTHERN CALIFORNIA, published 2021) are described below.

The target in assay [1] is T1, human MPL (Thrombopoietin Receptor) (human, UniProt P40238 26-635).
T1 construct: whole, on cells; also called MPL on HEL.92.1.7 cells
T1 sequence (looked up): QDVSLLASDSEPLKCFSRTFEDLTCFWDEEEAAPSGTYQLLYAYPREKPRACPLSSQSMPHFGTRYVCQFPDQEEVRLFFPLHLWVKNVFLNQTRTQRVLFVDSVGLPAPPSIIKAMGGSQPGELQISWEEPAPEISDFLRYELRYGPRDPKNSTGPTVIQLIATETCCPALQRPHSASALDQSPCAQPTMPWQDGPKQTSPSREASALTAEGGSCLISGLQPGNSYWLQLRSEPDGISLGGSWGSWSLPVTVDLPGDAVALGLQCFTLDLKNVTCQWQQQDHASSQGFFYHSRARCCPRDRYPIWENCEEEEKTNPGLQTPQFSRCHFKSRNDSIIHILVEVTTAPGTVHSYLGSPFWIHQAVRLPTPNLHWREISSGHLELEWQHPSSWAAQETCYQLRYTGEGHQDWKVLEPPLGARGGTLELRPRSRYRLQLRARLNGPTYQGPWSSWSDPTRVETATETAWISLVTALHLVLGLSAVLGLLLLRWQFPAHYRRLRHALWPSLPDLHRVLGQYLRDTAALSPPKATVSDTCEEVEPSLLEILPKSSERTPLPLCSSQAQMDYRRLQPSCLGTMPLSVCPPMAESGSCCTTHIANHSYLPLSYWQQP
In words: CAR expressed in MPL-bearing HEL.92.1.7 cells; staining with MPL antibody (1.6.1) or 161-scFv-Nluc.

Another assay deals with T2, BCMA (human, UniProt Q02223 1-184).
T2 construct: whole, on cells; also called human BCMA; BCMA on L363 cells
T2 sequence (looked up): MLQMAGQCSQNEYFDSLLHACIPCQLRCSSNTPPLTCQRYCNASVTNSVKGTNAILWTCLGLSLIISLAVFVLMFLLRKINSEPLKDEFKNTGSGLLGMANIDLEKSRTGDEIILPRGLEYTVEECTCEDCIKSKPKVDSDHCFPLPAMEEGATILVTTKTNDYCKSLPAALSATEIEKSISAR
In words: CAR stably expressed in BCMA-bearing L363 and U266 cell lines; detection reagent not named.

B1: CD8SP-MPL-hu-161-2-BBz (other)
chain: DVVMTQSPSSLSASVGDRVTITCMASEDIYIRLAWYQQKPGNAPKLLIYAATSLETGVPSRFSGSGSGTDFTLTISSLQPEDFATYYCQQYWSSPWTFGGGTKVEIKGGGGSGGGGSGGGGSQVQLQESGPGLVKPSQTLSLTCTVSGYSITSDYTWNWIRQPPGNGLEWIGYITYSGSTSYNPSLKSRVLISVDTSKNQVSLKLSSVTAADTAVYYCARLGRRYTMDYWGQGTTVTVSSTRAKPTTTPAPRPPTPAPTIASQPLSLRPEACRPAAGGAVHTRGLDFACDIYIWAPLAGTCGVLLLSLVITLYCKRGRKKLLYIFKQPFMRPVQTTQEEDGCSCRFPEEEEGGCELRVKFSRSADAPAYQQGQNQLYNELNLGRREEYDVLDKRRGRDPEMGGKPRRKNPQEGLYNELQKDKMAEAYSEIGMKGERRRGKGHDGLYQGLSTATKDTYDALHMQALPPR
notes: Second generation CAR from a humanized MPL antibody (41BB, CD3z); Entry includes the CD8 signal peptide
B1: the binding result in assay [1] is on record as “binds”.

B2: CD8SP-BCMA-huC13-F12-BBz (other)
chain: DIVLTQSPATLSLSPGDRATLSCRASESVTILGSHLIYWYQQKPGQAPRLLIQLASNVQTGIPARFSGSGSRTDFTLTISSLEPEDFAVYYCLQSRTIPRTFGQGTKLEIKRGGGGSGGGGSGGGGSQVQLVQSGSELKKPGESVKISCKASGYTFTHYSMNWVRQAPGQGLEWMGRINTETGEPLYADDFKGRFVFSLDTSASTAYLQISSLKAEDTAVYYCSNDYLYSLDYWGQGTLVTVSSTRAKPTTTPAPRPPTPAPTIASQPLSLRPEACRPAAGGAVHTRGLDFACDIYIWAPLAGTCGVLLLSLVITLYCKRGRKKLLYIFKQPFMRPVQTTQEEDGCSCRFPEEEEGGCELRVKFSRSADAPAYQQGQNQLYNELNLGRREEYDVLDKRRGRDPEMGGKPRRKNPQEGLYNELQKDKMAEAYSEIGMKGERRRGKGHDGLYQGLSTATKDTYDALHMQALPPR
notes: Second generation CAR (41BB, CD3z)
Regarding B2, the binding result with BCMA is “binds”.
